Results: paper PMC5790919, “UDP-Glucuronic Acid Transport Is Required for Virulence of Cryptococcus neoformans” (mBio, 2018)

System: O=C(O)[C@H]1O[C@H](OP(=O)(O)OP(=O)(O)OC[C@H]2O[C@@H](n3ccc(=O)[nH]c3=O)[C@H](O)[C@@H]2O)[C@H](O)[C@@H](O)[C@@H]1O
Assay: cells, lysate or membranes
Details: proteoliposomes preloaded with 10 mM UMP (antiport), 2 min uptake; transport; kcat printed as turnover rate

Uut1 (Cryptococcus neoformans H99)
Km: 0.6 ± 0.1 µM | kcat: 0.08 s⁻¹
